Earlier results, collected in article PMC4467374.

Columns and labels:
[1] = molecular target: histone H3 K4me3/K9me3 peptide (Homo sapiens) (UniProt P68431)
[2] = molecular target: histone H3 K9me3 peptide (Homo sapiens) (UniProt P68431)

Chain of UHRF1 TTD (Q96T88 124-285): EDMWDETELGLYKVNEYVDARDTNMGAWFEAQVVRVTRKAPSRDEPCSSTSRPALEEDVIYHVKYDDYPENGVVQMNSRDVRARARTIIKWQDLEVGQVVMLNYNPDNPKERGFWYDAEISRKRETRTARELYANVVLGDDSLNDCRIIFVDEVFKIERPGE

In the case of UHRF1 TTD (from UniProt Q96T88), the Kd [1] is given as 90 µM and the Kd [2] is given as 20 µM.
